This note sets out measurements from FireProtDB (doi:10.1002/prot.10406).

The conditions of this data set: Homo sapiens, Urea, CD, phosphate citrate borate 2 mM 2 mM 2 mM, NaCl 10 mM, whole UniProt chain shown.

Values joined by “and” are separate entries in the source; they are usually repeats but may differ in a detail not shown here. Identical values can stand only once.

B1: Alpha-lactalbumin wild type, P00709 (protein)
chain: MRFFVPLFLVGILFPAILAKQFTKCELSQLLKDIDGYGGIALPELICTMFHTSGYDTQAIVENNESTEYGLFQISNKLWCKSSQVPQSRNICDISCDKFLDDDITDDIMCAKKILDIKGIDYWLAHKALCTEKLEQWLCEKL
For the protein B1, the denaturant m value (pH 2, 20 °C) was 0.54 kcal/mol/M and 0.67 kcal/mol/M. In addition, for the setting “pH 7, 2 °C, transition: 3”, the denaturant m value was 0.95 kcal/mol/M and 0.55 kcal/mol/M; the “denaturant midpoint (higher = more stable)” value is 2.24 M and 2.34 M; the unfolding free energy is 2.13 kcal/mol and 1.27 kcal/mol.
